Experimental findings from patent US20210300999A1 are described below.

This test has as its target SARS-CoV-2 S receptor-binding domain (SRBD), residues 319-541 (SARS-CoV-2) (UniProt P0DTC2). The test can be described thus: ELISA on coated antigen. (In general: ELISA stands for enzyme-linked immunosorbent assay.)

For “rCR3022 (recombinant form of the cross-reactive SARS-CoV SRBD mAb CR3022) (antibody)”, the EC50 (as a rule, the midpoint of the concentration-response curve) worked out at 1.1 ng/mL.
